B1: tisotumab vedotin (antibody, IgG1, V domains shown)
VH: EVQLLESGGGLVQPGGSLRLSCAASGFTFSNYAMSWVRQAPGKGLEWVSSISGSGDYTYYTDSVKGRFTISRDNSKNTLYLQMNSLRAEDTAVYYCARSPWGYYLDSWGQGTLVTVSS
VL: DIQMTQSPPSLSASAGDRVTITCRASQGISSRLAWYQQKPEKAPKSLIYAASSLQSGVPSRFSGSGSGTDFTLTISSLQPEDFATYYCQQYNSYPYTFGQGTKLEIK
modifications: MC-vc-PAB-MMAE (vcMMAE) attached to sulphydryl residues of the antibody; positions not given
B2: tisotumab (antibody, IgG1, V domains shown)
VH: B1 VH
VL: B1 VL
notes: Tested as IgG1 (IgG1-1015-011, Genmab); also called antibody 011; IgG1-1015-011

How the values were obtained:
Tissue Factor (TF) [1] = molecular target: T1, Tissue Factor (TF) (human, UniProt P13726 33-295); experiment: cell-based or functional assay
Tissue Factor (TF) [2] = molecular target: T1, Tissue Factor (TF); experiment: flow cytometry on HNSCC cell lines, 2 µg/ml tisotumab, PE-conjugated goat (Fab')2 anti-human IgG secondary

Binder | IC50 of cell killing (percent viable cells, Cell Titer-Blue, day 5); HNSCC cell lines with intermediate and high TF expression (Tissue Factor (TF) [1]) [ng/mL] | IC50 of cell killing (percent viable cells, Cell Titer-Blue, day 5); primary keratinocytes and VU-SCC-OE (low TF expression) (Tissue Factor (TF) [1]) [ng/mL] | binding result (Tissue Factor (TF) [2])
B1 | 2.5 to 7 | > 25 | 
B2 |  |  | binds
